Experimental data from the supplement of paper PMC10065799, “High-throughput profiling of sequence recognition by tyrosine kinases and SH2 domains using bacterial peptide display” (eLife, 2023).

Legend:
AncSZ = assay: phosphorylation enrichment, bacterial display (enrichment ratio); higher = better substrate or ligand; peptides without Tyr show the background
EPHB1 = EPHB1 (UniProt P54762); assay: as above
EPHB2 = EPHB2 (UniProt P29323); assay: as above
FGFR1 = FGFR1 (UniProt P11362); assay: as above
FGFR3 = FGFR3 (UniProt P22607); assay: as above
Fer (mouse) = assay: as above
Fes = Fes (UniProt P07332); assay: as above
Fyn = Fyn (UniProt P06241); assay: as above
Hck = Hck (UniProt P08631); assay: as above
Jak2 = Jak2 (UniProt O60674); assay: as above
MERTK = MERTK (UniProt Q12866); assay: as above
c-Abl (mouse) = assay: as above
c-Src = assay: as above
Grb2 SH2 = Grb2 SH2 (UniProt P62993); assay: SH2 binding enrichment of the phosphorylated peptide, bacterial display (enrichment ratio); higher = better substrate or ligand; peptides without Tyr show the background
SHP2-C SH2 = assay: as above
c-Src SH2 = assay: as above
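Throughout, for SH2 binding enrichment of the phosphorylated peptide, bacterial display: peptide library displayed on the E. coli surface as eCPX fusions, selected cells deep-sequenced, score is each peptide's frequency after selection divided by its frequency in the input.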
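Throughout, for phosphorylation enrichment, bacterial display: 11-residue human phosphosite peptides and single-mutation variants displayed on the E. coli surface, counted by deep sequencing, each peptide's frequency after selection divided by its frequency in the unselected input library; frequency after pTyr selection over input frequency; kinase dosed for 20-30% of maximal phosphorylation in three min.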

Hck, sequence (P08631 whole entry, looked up): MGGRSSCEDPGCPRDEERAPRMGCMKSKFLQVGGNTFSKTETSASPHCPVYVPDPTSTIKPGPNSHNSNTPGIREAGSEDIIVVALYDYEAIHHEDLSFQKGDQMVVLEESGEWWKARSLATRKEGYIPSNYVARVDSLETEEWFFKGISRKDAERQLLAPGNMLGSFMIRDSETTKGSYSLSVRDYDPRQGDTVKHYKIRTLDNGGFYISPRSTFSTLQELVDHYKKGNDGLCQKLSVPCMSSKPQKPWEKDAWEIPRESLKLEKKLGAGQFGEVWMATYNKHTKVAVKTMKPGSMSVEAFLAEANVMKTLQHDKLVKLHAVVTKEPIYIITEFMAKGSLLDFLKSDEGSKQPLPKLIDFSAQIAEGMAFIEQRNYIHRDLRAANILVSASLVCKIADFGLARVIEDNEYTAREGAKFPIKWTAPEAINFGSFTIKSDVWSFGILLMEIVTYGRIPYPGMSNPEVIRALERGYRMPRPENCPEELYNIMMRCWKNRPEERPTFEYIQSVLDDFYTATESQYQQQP
Jak2, sequence (O60674 whole entry, looked up): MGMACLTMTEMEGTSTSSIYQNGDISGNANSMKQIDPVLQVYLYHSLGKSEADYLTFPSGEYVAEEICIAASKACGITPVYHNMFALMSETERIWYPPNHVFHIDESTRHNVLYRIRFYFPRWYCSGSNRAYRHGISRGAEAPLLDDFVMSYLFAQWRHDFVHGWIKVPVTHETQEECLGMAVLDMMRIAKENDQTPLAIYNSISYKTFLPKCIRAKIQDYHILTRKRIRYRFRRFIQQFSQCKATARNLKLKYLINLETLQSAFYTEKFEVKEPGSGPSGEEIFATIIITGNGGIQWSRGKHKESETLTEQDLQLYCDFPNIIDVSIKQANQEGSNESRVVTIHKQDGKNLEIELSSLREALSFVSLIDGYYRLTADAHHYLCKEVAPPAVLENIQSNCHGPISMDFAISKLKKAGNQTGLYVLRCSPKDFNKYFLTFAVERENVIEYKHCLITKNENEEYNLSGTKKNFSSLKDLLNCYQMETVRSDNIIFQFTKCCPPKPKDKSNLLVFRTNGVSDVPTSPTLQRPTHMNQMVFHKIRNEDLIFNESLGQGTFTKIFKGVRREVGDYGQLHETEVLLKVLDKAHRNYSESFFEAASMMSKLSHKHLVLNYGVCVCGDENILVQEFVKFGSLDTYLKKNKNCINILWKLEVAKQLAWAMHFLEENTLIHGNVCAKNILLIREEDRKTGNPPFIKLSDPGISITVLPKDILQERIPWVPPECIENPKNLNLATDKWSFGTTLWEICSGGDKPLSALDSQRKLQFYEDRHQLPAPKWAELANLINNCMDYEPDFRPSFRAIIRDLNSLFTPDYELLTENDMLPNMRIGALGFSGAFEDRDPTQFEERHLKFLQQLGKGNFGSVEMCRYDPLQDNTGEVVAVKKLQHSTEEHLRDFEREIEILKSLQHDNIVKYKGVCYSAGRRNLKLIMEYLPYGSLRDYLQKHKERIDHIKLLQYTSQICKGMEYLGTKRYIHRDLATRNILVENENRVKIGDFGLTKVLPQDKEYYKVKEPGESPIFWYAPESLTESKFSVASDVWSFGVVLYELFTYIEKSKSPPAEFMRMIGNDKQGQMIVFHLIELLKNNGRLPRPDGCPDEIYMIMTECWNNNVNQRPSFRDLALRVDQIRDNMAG
EPHB1, sequence (P54762 whole entry, looked up): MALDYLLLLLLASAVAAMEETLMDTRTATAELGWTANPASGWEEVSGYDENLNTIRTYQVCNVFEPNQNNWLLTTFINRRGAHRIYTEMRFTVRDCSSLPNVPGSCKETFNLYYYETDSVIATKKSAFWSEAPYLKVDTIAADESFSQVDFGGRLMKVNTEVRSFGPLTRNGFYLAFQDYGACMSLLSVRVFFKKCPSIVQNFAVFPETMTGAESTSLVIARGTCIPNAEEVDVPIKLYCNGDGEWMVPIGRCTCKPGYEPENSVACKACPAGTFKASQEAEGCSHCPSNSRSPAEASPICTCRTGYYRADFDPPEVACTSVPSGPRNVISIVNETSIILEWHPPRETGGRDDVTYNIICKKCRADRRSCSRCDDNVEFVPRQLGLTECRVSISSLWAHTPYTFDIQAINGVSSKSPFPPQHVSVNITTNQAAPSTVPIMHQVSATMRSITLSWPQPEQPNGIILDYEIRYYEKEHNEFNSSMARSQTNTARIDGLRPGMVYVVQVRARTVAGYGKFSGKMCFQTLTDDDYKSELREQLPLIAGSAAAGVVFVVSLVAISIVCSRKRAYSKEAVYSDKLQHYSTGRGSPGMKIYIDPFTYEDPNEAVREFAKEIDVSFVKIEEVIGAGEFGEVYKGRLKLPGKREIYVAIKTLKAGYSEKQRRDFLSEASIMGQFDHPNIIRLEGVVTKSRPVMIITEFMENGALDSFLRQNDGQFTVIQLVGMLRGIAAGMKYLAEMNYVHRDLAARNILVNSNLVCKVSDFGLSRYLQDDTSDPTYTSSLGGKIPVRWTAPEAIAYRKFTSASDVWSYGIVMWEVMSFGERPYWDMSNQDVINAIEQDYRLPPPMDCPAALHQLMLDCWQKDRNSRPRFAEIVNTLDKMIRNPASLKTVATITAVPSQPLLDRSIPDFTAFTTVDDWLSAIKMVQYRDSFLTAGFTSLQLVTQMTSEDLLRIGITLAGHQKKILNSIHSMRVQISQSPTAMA
Fyn, sequence (P06241 whole entry, looked up): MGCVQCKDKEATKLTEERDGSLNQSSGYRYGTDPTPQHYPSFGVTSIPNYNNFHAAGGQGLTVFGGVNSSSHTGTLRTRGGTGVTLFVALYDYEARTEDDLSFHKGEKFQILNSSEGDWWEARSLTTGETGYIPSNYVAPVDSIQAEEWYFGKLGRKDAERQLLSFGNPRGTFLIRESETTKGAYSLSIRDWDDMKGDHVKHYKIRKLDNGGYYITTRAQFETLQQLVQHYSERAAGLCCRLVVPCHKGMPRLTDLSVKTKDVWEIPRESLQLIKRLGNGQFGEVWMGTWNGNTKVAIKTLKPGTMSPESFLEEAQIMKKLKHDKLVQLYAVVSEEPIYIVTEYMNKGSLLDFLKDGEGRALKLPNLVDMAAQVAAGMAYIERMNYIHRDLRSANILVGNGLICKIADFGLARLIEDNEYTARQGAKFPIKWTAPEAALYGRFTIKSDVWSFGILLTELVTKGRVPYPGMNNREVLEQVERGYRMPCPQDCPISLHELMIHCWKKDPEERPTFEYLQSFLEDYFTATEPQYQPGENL
MERTK, sequence (Q12866 whole entry, looked up): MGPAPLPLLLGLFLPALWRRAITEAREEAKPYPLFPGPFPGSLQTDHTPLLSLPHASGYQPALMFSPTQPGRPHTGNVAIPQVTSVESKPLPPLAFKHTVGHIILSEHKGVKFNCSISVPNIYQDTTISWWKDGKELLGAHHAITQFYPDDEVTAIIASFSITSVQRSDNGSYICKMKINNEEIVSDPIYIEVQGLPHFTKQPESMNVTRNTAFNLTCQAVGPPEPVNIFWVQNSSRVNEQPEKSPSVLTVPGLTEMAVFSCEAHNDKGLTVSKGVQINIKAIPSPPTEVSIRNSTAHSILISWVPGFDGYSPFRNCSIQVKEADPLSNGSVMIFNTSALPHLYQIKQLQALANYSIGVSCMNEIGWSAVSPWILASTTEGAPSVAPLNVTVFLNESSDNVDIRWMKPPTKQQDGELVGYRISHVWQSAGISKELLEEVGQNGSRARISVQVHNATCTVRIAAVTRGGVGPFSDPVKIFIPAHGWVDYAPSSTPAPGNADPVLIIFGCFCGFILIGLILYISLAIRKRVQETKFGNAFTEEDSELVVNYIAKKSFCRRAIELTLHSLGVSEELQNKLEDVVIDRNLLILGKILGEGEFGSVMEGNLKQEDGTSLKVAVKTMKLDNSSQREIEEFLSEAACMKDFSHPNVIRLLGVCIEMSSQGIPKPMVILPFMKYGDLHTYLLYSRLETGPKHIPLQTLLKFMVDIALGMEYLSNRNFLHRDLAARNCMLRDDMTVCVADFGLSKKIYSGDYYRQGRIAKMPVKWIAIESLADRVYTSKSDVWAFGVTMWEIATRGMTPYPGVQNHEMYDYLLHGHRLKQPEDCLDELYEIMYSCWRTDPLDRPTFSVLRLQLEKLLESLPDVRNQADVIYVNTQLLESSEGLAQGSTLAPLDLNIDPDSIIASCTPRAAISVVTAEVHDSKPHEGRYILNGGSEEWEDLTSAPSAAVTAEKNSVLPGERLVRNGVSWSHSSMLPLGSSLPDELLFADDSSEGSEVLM
FGFR3, sequence (P22607 whole entry, looked up): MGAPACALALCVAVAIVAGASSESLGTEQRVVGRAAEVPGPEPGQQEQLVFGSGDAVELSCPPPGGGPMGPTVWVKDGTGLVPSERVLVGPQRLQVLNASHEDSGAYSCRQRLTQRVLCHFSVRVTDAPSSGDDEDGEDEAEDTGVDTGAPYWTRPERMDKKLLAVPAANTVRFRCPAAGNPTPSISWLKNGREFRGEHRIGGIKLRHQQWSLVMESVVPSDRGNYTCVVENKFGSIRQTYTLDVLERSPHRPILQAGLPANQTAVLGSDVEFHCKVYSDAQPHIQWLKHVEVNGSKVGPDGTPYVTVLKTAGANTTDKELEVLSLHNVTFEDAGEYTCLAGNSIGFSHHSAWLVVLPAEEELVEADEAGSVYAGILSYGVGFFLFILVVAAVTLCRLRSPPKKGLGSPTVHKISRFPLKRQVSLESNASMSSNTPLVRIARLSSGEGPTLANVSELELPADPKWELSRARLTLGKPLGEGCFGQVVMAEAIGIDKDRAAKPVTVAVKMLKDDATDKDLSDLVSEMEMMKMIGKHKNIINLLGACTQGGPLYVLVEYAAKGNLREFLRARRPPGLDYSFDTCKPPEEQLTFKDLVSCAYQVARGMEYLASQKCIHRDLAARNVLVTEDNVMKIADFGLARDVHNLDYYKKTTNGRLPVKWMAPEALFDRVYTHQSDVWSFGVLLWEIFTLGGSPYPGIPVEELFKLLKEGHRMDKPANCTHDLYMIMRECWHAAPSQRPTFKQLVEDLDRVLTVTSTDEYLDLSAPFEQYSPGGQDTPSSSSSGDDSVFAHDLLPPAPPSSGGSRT

SH2 binding enrichment (Grb2 SH2) | SH2 binding enrichment (SHP2-C SH2) | SH2 binding enrichment (c-Src SH2) | Sequence | phosphorylation enrichment (AncSZ) | phosphorylation enrichment (EPHB1) | phosphorylation enrichment (EPHB2) | phosphorylation enrichment (FGFR1) | phosphorylation enrichment (FGFR3) | phosphorylation enrichment (Fer (mouse)) | phosphorylation enrichment (Fes) | phosphorylation enrichment (Fyn) | phosphorylation enrichment (Hck) | phosphorylation enrichment (Jak2) | phosphorylation enrichment (MERTK) | phosphorylation enrichment (c-Abl (mouse)) | phosphorylation enrichment (c-Src)
0.753 | 0.54 | 1.57 | NNKKDYYDMYE [SLC26A3_Y526_K521N] | 1.47 | 2.03 | 1.52 | 8.57 | 6.01 | 0.544 | 1.04 | 0.792 | 0.728 | 0.735 | 0.483 | 0.537 | 0.591
0.77 | 1.03 | 0.433 | ALMGPYHGQVL [HADHA_Y343_L342P] | 0.544 | 0.366 | 0.41 | 0.411 | 0.436 | 0.336 | 0.537 | 0.336 | 0.384 | 0.485 | 0.335 | 0.61 | 0.46
1.18 | 1.5 | 1.16 | YISLIYTNYEV [GSTP1_Y109_A114V] | 1.82 | 2 | 1.83 | 4.89 | 4.26 | 5.32 | 1.55 | 4.07 | 2.59 | 1.54 | 3.93 | 2.16 | 4.53
0.623 | 5.07 | 1.71 | LNAGAYSKVVQ [PPT1_Y172] | 1.12 | 0.703 | 0.557 | 0.41 | 0.686 | 1.02 | 0.974 | 0.529 | 0.357 | 1.28 | 0.627 | 0.994 | 0.84
0.815 | 0.766 | 0.453 | IIGNGYFFRVF [MYBPC3_Y1135_YF] | 0.844 | 0.433 | 0.461 | 0.334 | 0.538 | 0.394 | 0.98 | 0.258 | 0.33 | 0.956 | 0.28 | 0.692 | 0.288
0.734 | 0.574 | 0.678 | HCFNSYTFPRL [PAK7_Y316_S312C_YF] | 1.94 | 0.752 | 0.743 | 0.713 | 0.978 | 0.804 | 1.72 | 0.707 | 0.564 | 1.31 | 0.591 | 0.795 | 0.469
1.04 | 0.745 | 4.65 | NALVQYQEMEK [BBS4_Y395_A393V] | 0.978 | 0.507 | 0.503 | 0.562 | 0.721 | 0.509 | 1.02 | 0.53 | 0.569 | 1.02 | 0.459 | 0.62 | 0.507
1 | 0.956 | 0.989 | FPCSVYMPDEW [INSR_Y1011_V1012M] | 1.19 | 0.6 | 0.644 | 0.658 | 0.712 | 0.512 | 1.06 | 0.875 | 0.596 | 1.1 | 0.559 | 0.687 | 3.15
0.783 | 0.535 | 0.771 | KPFRVYCDMNT [FGB_Y269_YF] | 1.22 | 0.933 | 0.72 | 0.597 | 0.773 | 0.593 | 1.3 | 0.493 | 0.513 | 1.31 | 0.409 | 0.886 | 0.414
1.2 | 0.821 | 0.719 | IEPCIYIPEDD [XPNPEP3_Y455_G453C] | 1.23 | 0.648 | 0.603 | 0.738 | 0.87 | 0.6 | 1.47 | 0.563 | 0.696 | 1.25 | 0.428 | 0.862 | 0.513
0.741 | 0.639 | 0.49 | GDFLSYREFHS [ERBIN_Y1107_YF] | 0.625 | 0.386 | 0.469 | 0.432 | 0.567 | 0.489 | 0.686 | 0.348 | 0.385 | 0.557 | 0.359 | 0.534 | 0.423
1.03 | 0.923 | 0.83 | VVQGIYGFHHF [UFSP2_Y285_YF] | 0.886 | 1.75 | 5.04 | 0.693 | 0.502 | 16.3 | 1.62 | 10.1 | 8.93 | 0.846 | 9.74 | 5.3 | 7.39
0.954 | 0.953 | 0.885 | NFATLHLKIYH [PDE6B_Y219_Y219H] | 1.16 | 0.675 | 0.536 | 0.423 | 0.755 | 0.498 | 1.41 | 0.476 | 0.47 | 1.12 | 0.46 | 1.01 | 0.568
0.589 | 0.513 | 0.461 | IFRASYFRKGG [ALK_Y1282_YF] | 1.02 | 0.55 | 0.621 | 0.518 | 0.625 | 0.581 | 0.899 | 0.619 | 0.674 | 1.11 | 0.706 | 0.721 | 0.688
0.741 | 0.59 | 0.727 | SLGKGYYDGGC [MC4R_Y35_S36Y] | 0.96 | 0.65 | 0.591 | 0.635 | 0.68 | 0.648 | 1.33 | 0.611 | 0.552 | 1.03 | 0.514 | 0.841 | 0.543
0.977 | 1.06 | 0.473 | VGSIEYLKREW [KCNMA1_Y885] | 0.823 | 0.35 | 0.487 | 0.523 | 0.612 | 0.447 | 0.967 | 0.359 | 0.511 | 0.927 | 0.38 | 0.488 | 0.446
